Results from the supplement of paper PMC10567573.

B1: FBXO34 (parent)
chain: ASSVESTLPVLEASSWKKQVSHDF

Variants of: B1
Experiment: protein stability index of a GFP-peptide fusion (GPS, HEK-293T) (PSI 1-6); higher = more stable
Conditions: c terminus: a fixed tail appended
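Note: lentivirally expressed fusions sorted by FACS into six bins by GFP to DsRed ratio, PSI derived from sequencing read proportions per bin multiplied by bin number.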

Protein stability index: each site, then its substitutions
H22: T 3.19, K 3.31, W 2.18, E 2.69, C 2.94, N 2.54, Q 2.58, M 2.23, P 4.1, G 4.47, S 2.79, Y 3.01, D 3.65, R 2.09, I 2.84, V 2.83, F 2.73, L 3.36
S15: I 4.11, M 3.5, Q 3.44, Y 2.99, W 2.38, L 3.4, D 4.01, V 2.84, G 3.65, T 3.07, N 2.88, P 3.61, K 3.92, H 3.24, R 3.81, A 3.05, F 2.75
K17: Q 1.52, H 3.17, D 4.16, W 2.02, A 1.83, S 2.38, M 2.58, I 1.59, F 2.85, N 3.75, G 2.98, P 3.95, L 2.85, C 3.17, T 1.61, Y 2.38
F24: A 3.78, I 2.19, R 4.53, H 3.98, M 3, N 4.25, Q 4.25, L 2.31, P 4.26, K 4.79, T 3.77, G 2.98, S 4.33, C 3.49
V20: R 4.22, K 4.3, W 2.47, H 4.6, E 4.85, Y 3.5, M 4.34, F 3.72, I 3.69, A 3.91, L 3.55, Q 4.01, P 4.04, D 4.84, T 4.29, C 3.44, G 4.09, N 4.13
L11: V 3.03, T 2.87, Y 2.69, W 2.54, F 2.88, Q 2.96, K 2.19, C 2.85, M 2.33, P 2.78, E 3.02, A 3.52, N 2.85, G 2.01, R 3.05, I 2.91
T7: N 3.55, C 3.31, F 2.92, H 3.21, R 2.7, V 2.85, L 2.42, P 2.31, M 2.48, S 3.94, E 2.88, D 3.63, A 2.9, K 2.82, Y 3.37, Q 4.86
E12: V 2.73, I 2.12, N 3.1, Y 2.22, D 2.83, T 2.86, G 2.49, L 2.24, F 2.25, A 3.02, S 2.32, H 2.82, P 3.46, C 2.54, K 2.36
P9: S 2.28, F 2.12, E 1.96, H 1.56, L 2.04, M 2.6, T 1.98, Y 1.8, I 1.74, C 3.55, N 2.51, G 1.89, D 3.03, V 2.4, W 2.8, K 2.5
S6: W 3.02, D 2.46, L 3.18, R 2.43, P 2.96, I 1.7, M 2.36, T 3.06, A 3.41, C 2.56, F 1.76, K 2.76, H 2.42, N 3.83, Y 2.48
S14: T 2.33, G 2.8, C 2.95, Q 2.4, M 1.53, P 3.07, Y 2.3, F 2.49, V 2.35, R 2.39, W 1.12, N 3.02, E 2.75, H 2.4, L 2.14, I 3.74, D 1.67
V10: C 2.95, E 2.83, S 3.22, Y 1.76, D 3.25, H 2.5, K 2.45, I 2.39, M 3.73, G 3.41, F 2.22, A 3.64, N 1.84, W 2.37, P 3.19, T 2.58, R 2.3, L 2.55, Q 3.16
A13: D 3.19, C 2.36, L 2.61, Q 2.37, V 3, I 2.49, S 3.36, F 2.38, R 1.59, T 2.18, P 3.66, K 2.27, M 2.85, N 3.21, H 2.37
S21: D 4.89, K 3.26, W 2.3, H 3.58, R 3.79, L 2.44, Y 2.97, G 2.79, A 3.31, P 3.87, C 2.72, M 3, N 3.64, F 2.89, I 2.64, T 3.61, E 2.76, V 3.65, Q 3.08
E5: N 2.28, H 2.4, G 2.61, M 2.84, V 2.9, Q 2.51, L 2.9, F 1.77, C 2.38, W 2.03, I 2.17, D 3.22, K 2.48, Y 1.9, S 3.21
Q19: I 2.45, T 3.3, E 4.58, S 4.08, A 2.61, H 4.77, R 1.95, W 2.59, M 2.27, K 1.89, P 4.53, N 3.97, Y 2.01, D 4.28, G 4.14, C 2.92, L 2.57, F 2.82
D23: L 3.27, Q 2.93, C 2.22, W 2.61, T 3.26, P 2.91, G 3.06, I 2.07, F 3.22, Y 2.18, H 3.27, E 1.77, R 3.76, S 3.14, A 3.54, M 2.96, K 3.54
W16: C 4.2, M 5.15, F 3.67, H 4.31, L 3.94, I 3.71, A 4.01, V 4.99, N 4.99, E 5.07, D 5.44, P 4.61, G 4.66, R 4.69, S 4.2, K 4.18, T 4.81, Q 4.71, Y 3.75
L8: Y 2.39, V 1.83, Q 2.04, P 2.66, I 2.82, G 3.59, C 3.4, T 3.38, R 3.05, E 3.38, S 3.57, K 3.22, F 2.52, M 1.91, H 2.89
K18: L 2.83, W 2.58, R 3.15, S 3.72, I 2.37, H 2.39, V 2.53, E 1.38, F 1.8, Q 2.69, P 2.99, C 2.11, T 2.95, M 1.5, N 2.94, G 3.49, Y 2.44, A 2.21, D 1.88
